For one substance, Kd results are on record in publication PMC4488944.

Holding throughout (assay): fluorescence polarisation
Background: In fluorescence polarisation assays a small probe gives low polarisation when free and higher when bound to something large.

Test [1] has as its target SepJ peptide bearing proline-to-serine substitutions (Anabaena sp. strain PCC 7120).
Test [2] deals with fluorescent peptide corresponding to the SH3 binding motif of FraC (Anabaena sp. strain PCC 7120).
Test [3] has as its target fluorescent peptide corresponding to the SH3 binding motif of SepJ (Anabaena sp. strain PCC 7120).

As usually defined, the Kd is a measure of binding affinity in units of concentration. The low end stands for higher affinity, the high end for lower affinity. With “His-tagged SjcF1 (All1861 without transmembrane domain) (domain or fragment)”, the Kd is above 2000 µM in test [1], 12 µM in test [2] and 39 µM in test [3].
